Reference: PMC4032242

Target: type I IFN-β receptor (human (endogenous in A549 and Daudi)) (UniProt P48551)
Sequence of UniProt P48551 (P48551 27-515): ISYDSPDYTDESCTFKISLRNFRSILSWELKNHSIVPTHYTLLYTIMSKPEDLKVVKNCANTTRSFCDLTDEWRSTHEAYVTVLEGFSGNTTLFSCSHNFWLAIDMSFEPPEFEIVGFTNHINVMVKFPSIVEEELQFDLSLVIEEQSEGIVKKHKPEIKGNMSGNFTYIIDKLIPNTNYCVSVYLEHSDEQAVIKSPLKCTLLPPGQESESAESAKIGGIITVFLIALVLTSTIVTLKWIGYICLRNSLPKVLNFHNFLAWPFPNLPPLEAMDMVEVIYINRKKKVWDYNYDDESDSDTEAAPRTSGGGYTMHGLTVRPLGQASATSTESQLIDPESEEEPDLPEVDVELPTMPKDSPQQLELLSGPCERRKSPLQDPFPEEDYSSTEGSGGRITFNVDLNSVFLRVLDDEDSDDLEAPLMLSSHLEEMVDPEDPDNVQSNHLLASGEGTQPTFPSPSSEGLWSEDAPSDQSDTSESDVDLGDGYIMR

Row | 50% response in a FACS assay of IFN-inducible expression of MHC class I on the surface of A549 cells | IC50 in the antiproliferative assay (Daudi cells, 48 hr) | in vitro anti-viral activity (protection of A549 cells against the cytopathic effect of EMCV), average of three lots | in vitro anti-viral activity (protection of A549 cells against the cytopathic effect of EMCV) | in vitro anti-viral activity (protection of A549 cells against the cytopathic effect of EMCV), average of two lots | Substance
1 | 265 pg/mL | 0.014 ng/mL | 2.99e+08 IU/mg | – | – | R27T (rhIFN-β mutein with N-glycosylation at the 25th and 80th amino acid) (from UniProt P01574 22-187) (ligand)
2 | 238 pg/mL | 0.029 ng/mL | – | 2.88e+08 IU/mg | – | Rebif (recombinant human interferon-β 1a) (from UniProt P01574 22-187) (ligand)
3 | 359 pg/mL | 0.022 ng/mL | – | – | 2.52e+08 IU/mg | R27TΔGlyc (from UniProt P01574 22-187) (ligand)
